Measured values reported in patent US12491259B2, “Anti-variable MUC1* antibodies and uses thereof” (Minerva Biotechnologies Corporation, priority 2022, dated 2025).

Experiments:
Assay in all cases: xCELLigence real-time killing assay (impedance)
Type in all cases: cell-based, human
[1] = system: T47D wild-type breast cancer cells; details: for concentration showing potent / effective / comparable killing: after 120 hours; for ADC concentration at which essentially all the tumor cells were killed: readout 120 hours post ADC addition, DAR: MNC2-MMAE 4.1, MN20A10-MMAE 5.8, MNC2-MMAF 3.7, MN20A10-MMAF 3.8; for concentration at which target cells are effectively killed: within a 40 hour timeframe
Protocol: FIGS. 49A-49J show traces from the real-time killing assays performed on an xCELLigence instrument. In this assay, impedance is measured in real-time. When the adherent cancer cells are killed and come off of the electrode surface, impedance (insulation) decreases. T47D wild-type breast cancer cells were plated onto multi-electrode-well plates at 5,000 cells per well and allowed to adhere and grow for 24 hours before the addition of ADCs. Either MNC2-MMAE, DAR 4.1, MN20A10-MMAE, DAR 5.8, MNC2-MMAF, DAR 3.7, MN20A10-MMAF, DAR 3.8, MNC2-Deruxtecan, DAR 7.2, or MN20A10-Deruxtecan, DAR 4.6, was then added to the cancer cells. […] Taxol and Triton are added as the positive killing control. […] Taxol and Triton are added as the positive killing control. […]
(§1) To assess real-time killing of target cancer cells including breast cancer cells (T47D), non-small cell lung cancer cells (NCI-H1975) and pancreatic cancer cells (HP AF II) assays were performed on an xCELLigence RTCA MP Instrument (Agilent). Target Cancer cells were seeded onto a multi-electrode well plate at a density of 5000 cells/well (100 μL of a 50,000 cells/mL stock) and incubated for 24 hr in a 37° C./5% CO2 incubator. mAb MNC2 ADCs or mAb MN20A10-ADCs were prepared as a 2× solution in corresponding growth media and 100 μL of each concentration was added to target cells. As a positive control (100% cell killing) cells were treated with either 1% triton or 1 μM Taxol instead of ADC. After 40-120 hours incubation in a 37° C./5% CO2 incubator cell killing was assessed. In this assay, impedance is measured in real-time. When the adherent cancer cells are killed and come off the electrode surface, impedance (insulation) decreases.
(§2) MNC2-ADCs and MN20A10-ADCs were also assayed for their ability to kill both low and high MUC1* expressing cells by monitoring killing in real-time using an xCELLigence instrument. In the xCelligence system, target cancer cells, which are adherent, are plated onto electrode array 96-well plates. Adherent cells insulate the electrode and increase the impedance. The number of adherent cancer cells is directly proportional to impedance. […] Therefore, increasing impedance reflects the growth of the cancer cells and decreasing impedance reflects the killing of the cancer cells.
Breast cancer cell line T47D-wt expresses MUC1* at low to low-medium levels. Pancreatic cancer cell line HPAF II-wt expresses even lower levels of MUC1* and lung cancer cell line NCI-H1975 express still lower levels of MUC1*.

[2] = system: NCI-H1975 lung cancer cells; details: for time course of effect: 40 hours versus 120 hours; for ADC concentration at which essentially all the lung tumor cells were killed: readout 40 hours; for ADC concentration at which essentially all the tumor cells were killed: readout 120 hours post ADC addition
Protocol: FIG. 51A-51I show traces from the real-time killing assays performed on an xCELLigence instrument. In this assay, impedance is measured in real-time. When the adherent cancer cells are killed and come off of the electrode surface, impedance (insulation) decreases. NCI-H1975 lung cancer cells were plated onto multi-electrode-well plates at 5,000 cells per well and allowed to adhere and grow for 24 hours before the addition of ADCs. Either MNC2-MMAE, DAR 4.1, MN20A10-MMAE, DAR 5.8, MNC2-MMAF, DAR 3.7, MN20A10-MMAF, DAR 3.8, MNC2-Deruxtecan, DAR 7.2, or MN20A10-Deruxtecan, DAR 4.6, was then added to the cancer cells. […] Taxol and Triton are added as the positive killing control. […].
FIGS. 56A-56D show traces from the real-time killing assays performed on an xCELLigence instrument. In this assay, impedance is measured in real-time. When the adherent cancer cells are killed and come off of the electrode surface, impedance (insulation) decreases. Here NCI-H1975 non-small cell lung cancer cells that express very low levels of MUC1*, were plated onto multi-electrode 96-well plates at 5,000 cells per well and allowed to adhere and grow for 24 hours before the addition of ADCs. Either MNC2-Exatecan, DAR 8.2, MNC2-Deruxtecan, DAR 4.0, MNC2-MMAE, DAR 4.1, or free Exatecan at 50 μM, was then added to the cancer cells.
as §1, §2

[3] = system: HPAF II-MUC1* pancreatic cancer cells; details: readout 120 hours post ADC addition
Protocol: FIGS. 53A-53I show traces from the real-time killing assays performed on an xCELLigence instrument. In this assay, impedance is measured in real-time. When the adherent cancer cells are killed and come off of the electrode surface, impedance (insulation) decreases. HPAF II-MUC1* pancreatic cancer cells, engineered to express more MUC1*, were plated onto multi-electrode-well plates at 5,000 cells per well and allowed to adhere and grow for 24 hours before the addition of ADCs. Either MNC2-MMAE, DAR 4.1, MN20A10-MMAE, DAR 5.8, MNC2-MMAF, DAR 3.7, MN20A10-MMAF, DAR 3.8, MNC2-Deruxtecan, DAR 7.2, or MN20A10-Deruxtecan, DAR 4.6, was then added to the cancer cells. […] Taxol and Triton are added as the positive killing control. […] Taxol and Triton are added as the positive killing control. […] As indicated, essentially all the pancreatic tumor cells were killed at an MNC2-MMAE concentration of 56 nM. […] As indicated, essentially all the tumor cells were killed at an MNC2-MMAF concentration of 56 nM. […] As indicated, essentially all the tumor cells were killed at an MN20A10-MMAE concentration of 56 nM-19 nM. […] As indicated, essentially all the tumor cells were killed at an MN20A10-MMAF concentration of 56 nM.
as §1, with “When the adherent cancer cells are killed and come off the electrode surface, impedance (insulation) decreases.” left out

B1: MNC2-MMAF (conjugate)
VH: EVQLVESGGGLVKPGGSLRLSCAASGFTFSGYAMSWVRQAPGKGLEWVSTISSGGTYIYYPDSVKGRFTISRDNAKNSLYLQMNSLRAEDTAVYYCARLGGDNYYEYFDVWGKGTTVTVSS
VL: DIVLTQSPASLAVSPGQRATITCRASKSVSTSGYSYMHWYQQKPGQPPKLLIYLASNLESGVPARFSGSGSGTDFTLTINPVEANDTANYYCQHSRELPFTFGGGTKVEIKRT
[1]
  concentration showing potent / effective / comparable killing: 167 nM
  ADC concentration at which essentially all the tumor cells were killed: 167 nM
  concentration at which target cells are effectively killed: 500 nM
[2]
  time course of effect: stasis at 40 hours, but killing at 120 hours
  ADC concentration at which essentially all the lung tumor cells were killed: 167 nM
  ADC concentration at which essentially all the tumor cells were killed: 56 nM
[3]
  ADC concentration at which essentially all (nearly all, near total) tumor cells were killed: 56 nM

B2: MNC2-Deruxtecan (conjugate)
VH: B1 VH
VL: B1 VL
[1]
  concentration showing potent / effective / comparable killing: 167 nM
[1]; by 100 hours, DAR 7.2
  concentration reaching approximately the same level of killing as MNC2-MMAE or -MMAF: 167 nM
[2]
  time course of effect: stasis at 40 hours, but killing at 120 hours
[3]
  ADC concentration at which essentially all (nearly all, near total) tumor cells were killed: 167 nM

B3: MN20A10-MMAF (conjugate)
VH: QVQLVESGGGLVKPGGSLRLSCAASGFTFSTYAMSWIRQAPGKGLEWVASIGRAGSTYYSDSVKGRFTISRDNAKNSLYLQMNSLRAEDTAVYYCARGPIYNDYDEFAYWGQGTLVTVSS
VL: EIVLTQSPATLSLSPGERATLSCKSSQSVLYSSNQKNYLAWYQQKPGQAPRLLIYWASTRESGIPARFSGSGSGTDFTLTISSLEPEDFAVYYCHQYLSSLTFGGGTKVEIKR
[1]
  concentration showing potent / effective / comparable killing: 167 nM
  ADC concentration at which essentially all the tumor cells were killed: 167 nM
  concentration at which target cells are effectively killed: 500 nM
[2]
  time course of effect: stasis at 40 hours, but killing at 120 hours
  ADC concentration at which essentially all the lung tumor cells were killed: 167 nM
  ADC concentration at which essentially all the tumor cells were killed: 56 nM
[3]
  ADC concentration at which essentially all (nearly all, near total) tumor cells were killed: 56 nM
